Results taken from patent publication US20260274944A1 (VECT HORUS, published 2026).

Key:
[1] = biological target: T1, human RAGE (hRAGE) fused to EGFP, stably expressed on CHO cells (human, UniProt Q15109 23-404); test: flow cytometry on CHO-hRAGE-EGFP cells, 4 °C, anti-6His detection
T1 construct: whole, on cells; also called CHO-hRAGE-EGFP; human receptor; not shown: EGFP from the pEGFP-N1 vector (Clontech), fused at the C-terminal (intracellular) end

[2] = biological target: T2, mouse RAGE (mRAGE) fused to EGFP, expressed on CHO cells (mouse, UniProt Q62151 23-402); test: flow cytometry on CHO-mRAGE-EGFP cells, 4 °C, anti-6His detection
T2 construct: whole, on cells; also called CHO-mRAGE-EGFP; murine RAGE; not shown: EGFP from the pEGFP-N1 vector (Clontech), fused at the C-terminal (intracellular) end
T2 sequence (Q62151 23-402): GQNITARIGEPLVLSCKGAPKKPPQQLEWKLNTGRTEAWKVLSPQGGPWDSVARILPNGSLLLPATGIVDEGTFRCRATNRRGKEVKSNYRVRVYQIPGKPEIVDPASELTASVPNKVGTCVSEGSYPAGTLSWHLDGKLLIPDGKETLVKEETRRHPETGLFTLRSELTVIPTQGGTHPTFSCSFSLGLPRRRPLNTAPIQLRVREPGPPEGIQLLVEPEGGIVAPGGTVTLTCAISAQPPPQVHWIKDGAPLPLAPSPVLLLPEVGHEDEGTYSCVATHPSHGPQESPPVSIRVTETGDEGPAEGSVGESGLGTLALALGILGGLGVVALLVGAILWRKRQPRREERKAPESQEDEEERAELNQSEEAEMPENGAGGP

[3] = biological target: T3, HA-mRAGE (mouse, UniProt Q62151 23-402); test: immunocytochemistry, 250 nM on transfected CHO cells, anti-human Fc detection
T3 construct: mature; Transiently expressed on CHO cells; also called full-length mRAGE with N-terminal HA tag; not shown: HA tag at the N-terminus; EGFP fused at the C-terminal end (pEGFP-N1)
T3 sequence (Q62151 23-402): as above
Description: To determine the binding domain of VHH-RAGE-Fc, inventors suppressed RAGE domains sequentially, expressed the resulting truncated constructs mRAGE-ΔV, mRAGE-ΔV-C1 (FIG. 9-A) and compared VHHRAGE-Fc binding on the full-length construct (mRAGE and HA-mRAGE) in transfected CHO cells. An HA tag was introduced in the N-ter of each receptor to validate appropriate presentation of the extracellular domain using anti-HA, non-permeabilizing immunocytochemistry. EGFP was fused at the C-terminal end to enable easy visualization of the truncated and full-length receptor by fluorescence microscopy. […] The synthetised DNA fragments were cloned into a pEGFP-N1 plasmid after restriction using XhoI EcoRI and ligation. CHO WT cells were transfected using jetPEI™ with the different plasmid constructs according to the manufacturer's instructions.
For immunocytochemistry, living transfected cells were incubated with 250 nM VHH-RAGE-hFc or anti-HA antibody for 1 hr at 37° C. Cells were then fixed using PBS-PFA 4%.

[4] = biological target: T1, human RAGE (hRAGE) fused to EGFP, …; test: immunocytochemistry, 50 nM on living CHO-hRAGE-EGFP cells, anti-hFc detection
Description: (§1) Immunocytochemistry experiments on CHO cell lines expressing the mouse or human RAGE fused to EGFP were performed to confirm the ability of fusion proteins to bind the RAGE. For these experiments, VHH-Fc fusion proteins were incubated at 50 nM on living cells, detected using an Alexa594-conjugated anti-hFc antibody after cells fixation with PBS-PFA 4% and permeabilization of the cell membrane with PBS-0.1% Triton X100 and photographed with a confocal microscope.

[5] = biological target: T2, mouse RAGE (mRAGE) fused to EGFP, …; test: immunocytochemistry, 50 nM on living CHO-mRAGE-EGFP cells, anti-hFc detection
Description: as §1

[6] = biological target: T4, RAGE in mice lungs (endogenous mouse RAGE at the alveolar epithelium) (mouse, UniProt Q62151 23-402); test: double immunofluorescence on lung sections of mice injected at 35 nmol/kg, 48 hours post injection
T4 construct: whole, on cells; also called RAGE in the lung
T4 sequence (Q62151 23-402): as above
Description: FIG. 10. Cellular binding/co-localization of VHH-Fc on RAGE in mice lungs. Immunocytochemistry was performed on the lungs of mice injected with VHH ctrl-Fc, VHH 1-Fc and VHH 5-Fc into tail vein at 35 nmol/kg. The mice were perfused with saline 48 hours post injection and the lungs were incubated in PFA 4% overnight. Lungs were extensively washed in PBS 1× and incubated 2 days in sucrose 30%. Double-immunofluorescent staining of lung tissue with anti-RAGE (Alexa Fluor 488, green) and with VHH-Fc (Alexa Fluor 594, red) antibodies were performed on lung sections. Cell nuclei were labeled with Hoechst #33342 at 0.5 μg/ml (blue). Co-labeling appears in yellow/orange in the merged pictures (right panel). Representative photographs were taken with a confocal microscope with 20× and 63× magnification.
To confirm the ability of fusion proteins to bind RAGE in vivo, immunocytochemistry experiments were performed on lungs of mice injected into the tail vein at 35 nmol/kg with VHH ctrl-Fc, VHH 1-Fc and VHH 5-Fc. Mice were perfused with saline 48 hours post injection and lungs were incubated in PFA 4% overnight. Lungs were extensively washed in PBS 1× and incubated 2 days in sucrose 30% before being snap frozen. The fixed lung was embedded in OCT and cut in 14 μm thick sections. […] Cell nuclei were labeled with Hoechst #33342. […]

[7] = biological target: T1, human RAGE (hRAGE) fused to EGFP, …; test: apparent Kd (Kd app), flow cytometry on CHO-hRAGE-EGFP cells
Description: FIG. 3. Apparent Kd determination of VHHs on hRAGE- and mRAGE-expressing CHO cell lines. (A) CHO-hRAGE-EGFP and CHO-mRAGE-EGFP cells were incubated 1 hr at 4° C. with increasing concentrations of VHHs, detected with a mouse anti-6His (1/1000) and an Alexa647-conjugated anti-mouse secondary antibody (1/400). Measurements were performed using flow cytometry. The ratio of fluorescence intensity for each point was normalized with the corresponding EGFP signal (receptor expression) and gave rise to the arbitrary units. Data are presented as mean±SEM of at least 3 independent experiments. (B) Characteristics of selected VHHs: Molecular Weight (Da); Apparent Kd on human RAGE (nM); Apparent Kd on mouse RAGE (nM). Data are presented as mean±SEM of at least 3 independent experiments.
The binding properties of VHHs with affinity for RAGE were tested using flow cytometry, and apparent affinities (K_{d app}) were determined. […] Fluorescence levels were assessed using an Attune N×T flow cytometer (Thermo Fisher Scientific).
Three VHHs (VHH 1, 2 and 5) out of 5 bound both the human and the mouse RAGE and induced a concentration-dependent shift of the signal (FIG. 3-A). […] Moreover, no labelling of the CHO WT control cells was detected with all the tested VHHs (not shown). The VHH K_{d app} were calculated using GraphPad Prism software.

[8] = biological target: T2, mouse RAGE (mRAGE) fused to EGFP, …; test: apparent Kd (Kd app), flow cytometry on CHO-mRAGE-EGFP cells
Description: The binding properties of VHHs with affinity for RAGE were tested using flow cytometry, and apparent affinities (K_{d app}) were determined. All experiments were performed in 96 well plates using 2×10⁵ cells/well, at 4° C. with shaking. CHO cell lines expressing RAGE fused to EGFP or CHO WT cells were saturated with PBS/BSA 2% solution during 30 min to avoid nonspecific binding, followed by incubation with purified VHHs at concentrations ranging from 50 μM to 0.5 nM for 1 hr. After one wash in PBS/BSA 2%, cells were incubated for 1 hr with an anti-6His tag antibody (mouse), washed twice with PBS/BSA 2%, and incubated for 1 hr with an Alexa647-conjugated anti-mouse secondary antibody. After two last washes in PBS/BSA 2%, cells were fixed by incubation for 15 min with PBS/PFA 2%, washed once with PBS and finally resuspended in PBS. Fluorescence levels were assessed using an Attune N×T flow cytometer (Thermo Fisher Scientific).
The binding properties of VHH-siRNA conjugates with affinity for RAGE were tested using flow cytometry, and apparent affinities (K_{d app}) were determined. The same protocol as the one described in example IV was used.
All VHH-siRNAs bound the mRAGE and induced a concentration-dependent shift of the signal (FIG. 4-A), confirming that the VHH conjugated to both the siTTRm and the siSOD1m retained the binding to the receptor of interest. The VHH-siRNA K_{d app} were calculated using GraphPad Prism software.

[9] = biological target: T2, mouse RAGE (mRAGE) fused to EGFP, …; test: flow cytometry competition on CHO-mRAGE-EGFP cells; competitor against tracer VHH 1-Fc
Description: FIG. 8. Competition assay between VHHs and VHH 1-Fc. (A) Principle of the competition test. In a first step, CHO-mRAGE-EGFP cells were incubated 1 hr at 4° C. with the competitor in dilution series. Second, the tracer at EC80-90 was added and incubated for 1 hr at 4° C. […] Measurements were performed using flow cytometry. (B) CHO-mRAGE-EGFP cells were incubated with the competitors (VHHs). Tracer (VHH 1-Fc) at EC80 was then added and detected with Alexa647-conjugated anti-hFc antibody (1/400).

T1 sequence (Q15109 23-404): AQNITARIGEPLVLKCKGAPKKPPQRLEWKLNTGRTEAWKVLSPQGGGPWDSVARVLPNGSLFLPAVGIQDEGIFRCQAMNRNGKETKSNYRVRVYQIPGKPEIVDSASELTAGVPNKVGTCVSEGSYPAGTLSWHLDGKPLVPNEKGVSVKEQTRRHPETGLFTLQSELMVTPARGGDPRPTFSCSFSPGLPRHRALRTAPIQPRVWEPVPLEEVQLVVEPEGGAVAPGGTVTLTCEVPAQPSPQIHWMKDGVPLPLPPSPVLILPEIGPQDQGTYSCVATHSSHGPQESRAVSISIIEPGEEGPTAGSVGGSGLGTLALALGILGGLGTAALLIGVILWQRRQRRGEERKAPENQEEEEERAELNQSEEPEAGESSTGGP

Binder	binding result [3]	binding result [5]	Kd [8] [µM]	further results
VHH 1 (VHH, also called sdAb VHH 1) VHH: QVQLVQSGGGLVQPGGSLRLSCAVSGSIFSSATMGWYRQAPGKQRELAARISSGGSTNYLDSVKGRFTISRDNAKNTVYLQMNSLKLEDTAVYYCRLQANFGLVDYWGKGTQVTVSS				binding result [1]: binds; binding result [2]: binds
VHH 1-Fc (Fc fusion, VHH with no tag fused to a human IgG1 Fc; also called VHHRAGE-Fc fusion; VHH-RAGE-Fc; not shown: human IgG1-Fc fragment encoded by the pINFUSE-IgG1-Fc2 vector (InvivoGen)) QVQLVQSGGGLVQPGGSLRLSCAVSGSIFSSATMGWYRQAPGKQRELAARISSGGSTNYLDSVKGRFTISRDNAKNTVYLQMNSLKLEDTAVYYCRLQANFGLVDYWGKGTQVTVSS	binds	binds		binding result [4]: binds; binding result [6]: binds
VHH 5 (VHH, also called sdAb VHH 5) VHH: EVQLVESGGGLVQPGGSLRLSCAASGTIFSLNPMGWYRQAPGKQLELVALISDSGTANYADFVRGRFTISRDTTKKTLYLQMNSLEPEDTAVYYCRSTFAAGNFYWGQGTQVTVSS			1.49	Kd [7]: 0.204 µM
VHH 2 (VHH, also called sdAb VHH 2) VHH: QVQLVQSGGGLVQAGGSLRLSCAASGSVSSIYAMGWYRQAPGKQREWVTTITGRGITDYAASVKGRFTISRDTAKNAVYLQMNNLKPEDTARYYCKIDRRGYAPYWGQGTQVTVSS				Kd [7]: 0.35 µM; binding result [2]: binds
VHH 2-Fc (Fc fusion, VHH with no tag fused to a human IgG1 Fc; also called VHHRAGE-Fc fusion; VHH-RAGE-Fc; not shown: human IgG1-Fc fragment encoded by the pINFUSE-IgG1-Fc2 vector (InvivoGen)) QVQLVQSGGGLVQAGGSLRLSCAASGSVSSIYAMGWYRQAPGKQREWVTTITGRGITDYAASVKGRFTISRDTAKNAVYLQMNNLKPEDTARYYCKIDRRGYAPYWGQGTQVTVSS	binds	binds		
VHH 3-Fc (Fc fusion, VHH with no tag fused to a human IgG1 Fc; also called VHHRAGE-Fc fusion; VHH-RAGE-Fc; not shown: human IgG1-Fc fragment encoded by the pINFUSE-IgG1-Fc2 vector (InvivoGen)) QVQLVQSGGGLVQAGGSLRLSCVASGRTFSNYAMAWFRQAPGEEREFVARISWSGGRTSYADSVKGRFTISRDNAKNTVYLQMISLKPEDTAVYYCATEAGAFGGVYSSTGSYDYWGQGTQVTVSS	binds	binds		
VHH 4 (VHH, also called sdAb VHH 4) VHH: EVQLVESGGGLVQAGGSLRLSCVASGRTFSNYAMAWFRQAPGEEREFVARISWRGGRTSYADSVKGRFTISRDNAKNTVYLQMISLKPEDTAVYYCASEGGAFGGVYSATGSYDYWGQGTQVTVSS			0.032	
VHH 3 (VHH, also called sdAb VHH 3) VHH: QVQLVQSGGGLVQAGGSLRLSCVASGRTFSNYAMAWFRQAPGEEREFVARISWSGGRTSYADSVKGRFTISRDNAKNTVYLQMISLKPEDTAVYYCATEAGAFGGVYSSTGSYDYWGQGTQVTVSS				binding result [9]: binds
VHH 2-siSOD1m (other, siRNA siSOD1m linked through an azido linker put by bacterial transglutaminase on the glutamine residue of the myc tag, then copper-free click chemistry, VHH-siRNA conjugate) VHH: QVQLVQSGGGLVQAGGSLRLSCAASGSVSSIYAMGWYRQAPGKQREWVTTITGRGITDYAASVKGRFTISRDTAKNAVYLQMNNLKPEDTARYYCKIDRRGYAPYWGQGTQVTVSSAAAEQKLISEEDLNGAAHHHHHHGS			0.238	
VHH 4-siSOD1m (other, siRNA siSOD1m linked through an azido linker put by bacterial transglutaminase on the glutamine residue of the myc tag, then copper-free click chemistry, VHH-siRNA conjugate) VHH: EVQLVESGGGLVQAGGSLRLSCVASGRTFSNYAMAWFRQAPGEEREFVARISWRGGRTSYADSVKGRFTISRDNAKNTVYLQMISLKPEDTAVYYCASEGGAFGGVYSATGSYDYWGQGTQVTVSSAAAEQKLISEEDLNGAAHHHHHHGS			0.0068	
